Results as given in the supplement of paper PMC12764529.
± gives the half width of the 95% confidence interval.

Legend:
[1] = folding stability dG unfold (combined trypsin and chymotrypsin); higher = more stable
Procedure, shortened: (§1)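 K50 was inferred by Bayesian fitting of sequencing counts obtained after protease digestion of designed mini-proteins. Unfolding free energy was derived by comparison with a sequence-predicted unfolded-state K50 and a shared folded-state K50, for each protease or both combined. The mini-proteins were under 80 residues, had no cysteine, were carried in a PA-tagged cDNA display construct, and were kept only if AlphaFold2 dimer inter-PAE exceeded 15.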

[2] = folding stability dG unfold from trypsin proteolysis; higher = more stable
Procedure, shortened: as §1

[3] = folding stability dG unfold from chymotrypsin proteolysis; higher = more stable
Procedure, shortened: as §1

Sequence	folding stability dG unfold [1]	folding stability dG unfold [2]	folding stability dG unfold [3]
SAGGSAGGSAGGPVRIVMKPSDIEYLLEKFGVEPLEIEEVEEDYVVVTITPEALKEAGLGSAGGSAGGSAGG [r7_587_TrMRF]	1.01 ± 0.18 kcal/mol	1.1 ± 0.065 kcal/mol	0.737 ± 0.049 kcal/mol
SAGGSAGGSAMKVSTTPVTLPNGESATLETLPDGTKVLKVGDKYIVVYPSGEVKEVPLEELLSAGGSAGGSA [r18_379_JUSTAS]	1.59 ± 0.12 kcal/mol	1.43 ± 0.06 kcal/mol	1.76 ± 0.046 kcal/mol
SAGSMVLTEDKEFEVDYVLPDGTRLTEPVKVKVKTTTVFLKNNSSLVLTFTTVTLTDPKGNKVTFSGSVSAG [r5_257_JUSTAS]	2.7 ± 0.1 kcal/mol	2.31 ± 0.074 kcal/mol	2.969 ± 0.018 kcal/mol
SAGGSAGGMKTFTIDELKKLAEELGAEIYYDKDTNTIYIRTPGKIFRITINDDGTVTIEELPPKSAGGSAGG [r6_155_TrROS_Hall]	3.66 ± 0.25 kcal/mol	3.05 ± 0.19 kcal/mol	3.99 ± 0.083 kcal/mol
SAGFTIEIENEDGKKITFRFPGWKIEIYPKDGIIMMRYPEENMSIMIKVDPNKIKIQVYDGGKWRWFPISAG [r5_786_TrROS]	3.69 ± 0.47 kcal/mol	2.86 ± 0.13 kcal/mol	3.92 ± 0.08 kcal/mol
SAGGSAGGSAGMEITRDKTPDGVWTVTITVPRPDGPSITVTVTGSPDGDFAPEKIAAVLASAGGSAGGSAGG [r11_759_JUSTAS]	0.819 ± 0.13 kcal/mol	1.15 ± 0.038 kcal/mol	0.078 ± 0.19 kcal/mol
SSPALDEKYTAKVDAKVTSPEGKPLATFTIDVLTEEEAKKKIEEFVKELAEKLGRPDLPVTISNITIERVSA [r9_376_JUSTAS]	0.679 ± 0.25 kcal/mol	0.519 ± 0.077 kcal/mol	0.921 ± 0.16 kcal/mol
SAGGITINEDGTITIEVNGKTYTIKLPPGAEITKIEVLEDGTIKITLRINGKTVTLELKVYKEGEEPSAGGS [r16_635_TrROS_Hall]	> 6 kcal/mol	4.56 ± 0.42 kcal/mol	6.55 ± 0.68 kcal/mol
SAGGWITVNQIRDLAKELPPGWRIKIKIEYPGKKHEHTIPPGDPITIPPNMPPEDITRIEITEIEPYSAGGS [r16_97_TrROS]	0.575 ± 0.11 kcal/mol	0.476 ± 0.062 kcal/mol	0.444 ± 0.18 kcal/mol
SAGGSAKLSAEEIAKLLKKLFPEVKEIKVKVEVNGKLYEVKIKVEKVKKKEKKKVEGMSEEEKKKLSAGGSA [r15_156_TrROS_Hall]	2.35 ± 0.32 kcal/mol	2.06 ± 0.19 kcal/mol	2.33 ± 0.1 kcal/mol
SAPGLRTYTIYDPSGVRRTFPPSWDVTILEYDPKTGTVTLKITKHNTDPGAPVSTETEKRKATFLRDVESAG [r14_927_JUSTAS]	0.725 ± 0.061 kcal/mol	0.575 ± 0.09 kcal/mol	0.824 ± 0.12 kcal/mol
SHMVTVTIYKNGVKVKETEIPLEEVEKMPEEEIIEFAAEIAKKNPGVNYTFTITRPSGPSTVSIDGPEKLKS [r1_477_JUSTAS]	1.28 ± 0.21 kcal/mol	0.762 ± 0.12 kcal/mol	1.55 ± 0.14 kcal/mol
SAGGSAGGSAGGSIVVRITPNPETGTVTIDVYRVLPPGVLRPGAGFTVPLSLIPPGAVVGSAGGSAGGSAGG [r7_455_TrMRF]	1.09 ± 0.053 kcal/mol	0.973 ± 0.018 kcal/mol	1.17 ± 0.047 kcal/mol
SAGGSSITVTDETTVEVSPTGSPTGPPVATVTTTTSTTTTTYYDPKTGTSTETTTTTTTTTTSTGASAGGSA [r2_269_JUSTAS]	0.382 ± 0.15 kcal/mol	0.603 ± 0.067 kcal/mol	0.192 ± 0.11 kcal/mol
SAGKIKIEKENGEVKIEIEVPEEEIEKLKKLLEELKKKGFEVEKVEVKVEKKEDGTVKVTIKVKIKPKPSAG [r5_739_TrROS_Hall]	2.99 ± 0.51 kcal/mol	1.91 ± 0.13 kcal/mol	3.42 ± 0.41 kcal/mol
SAGGSMALVEIERPGGEGALRTVDTSNPAAVKAFVDAVPEDEPVRVYTDDPAVVELFKEAGFDEVLLESAGG [r13_476_JUSTAS]	0.55 ± 0.096 kcal/mol	-0.0819 ± 0.053 kcal/mol	0.775 ± 0.087 kcal/mol
SAGGSVRVETEFERLPDGPIVVRVRITLPNGETLEFTAVYYPEPSGIPMFVPEPVPPNAIEGIDIKVSAGGS [r16_95_TrMRF]	2.11 ± 0.16 kcal/mol	2.55 ± 0.09 kcal/mol	1.78 ± 0.047 kcal/mol
SAGGMPPDARKLIREIAQDFGMSDIEPDEEGHVRINMPNPMMIQVDVENGEPKIKIYNNNKWREIPISAGGS [r16_296_TrROS]	0.437 ± 0.13 kcal/mol	0.355 ± 0.079 kcal/mol	0.411 ± 0.31 kcal/mol
SAGGSAGGSSIGRTEYIPEENLIVREEPETGLTIITKKPPNGPNIVYTIEPETGEKTVEESLISAGGSAGGS [r12_55_JUSTAS]	0.292 ± 0.2 kcal/mol	0.445 ± 0.067 kcal/mol	-0.0944 ± 0.22 kcal/mol
SAGGSAGGSAGHRSVMVTVDDIAKENGIKIPPGSYLMVTVEGNKVKDIMIQPMKPKPEDPSAGGSAGGSAGG [r11_616_TrROS]	-0.17 ± 0.18 kcal/mol	-0.499 ± 0.44 kcal/mol	-0.0198 ± 0.24 kcal/mol
SAGGSAGGPEIEVRFPDGWYVKITVERPEDGKVTVKVEVYHPDPNGKPIPPETAKNLAKEFLNKSAGGSAGG [r6_235_TrROS]	0.67 ± 0.11 kcal/mol	0.945 ± 0.075 kcal/mol	0.294 ± 0.12 kcal/mol

Sequence	folding stability dG unfold [1]	folding stability dG unfold [2]	folding stability dG unfold [3]
SAGGSAGGSAGGGMAYTVETEVTLTPDGTRVVRTTVTIEDTEVEETHVTPVAPAAPEGLSAGGSAGGSAGGS [r10_898_JUSTAS]	-0.231 ± 0.081 kcal/mol	-0.806 ± 0.17 kcal/mol	-0.079 ± 0.06 kcal/mol
SAGGMVIVVKTKEEAKKALEELLKKLFPDLKIKKIEIKEVEVEVKKKDGKKVKKKKFIVVKIEIEKESAGGS [r16_267_TrROS_Hall]	3.05 ± 0.13 kcal/mol	2.61 ± 0.1 kcal/mol	3.38 ± 0.13 kcal/mol
DWLIRIKFTYKGPDGNKHEMKIIVRVPESPEQAKEEVEDIARMIMEEQGYPPENIKKIKVEVIPPGEELTPS [r1_159_TrROS]	3.91 ± 0.14 kcal/mol	3.46 ± 0.1 kcal/mol	4.203 ± 0.041 kcal/mol
SAGGSFLVPTSSMEEAEEIKNAVLAGEPVTVTPPDGVPVTVKAKSVEVDPETGKVRIIDPSGEKLALSAGGS [r16_254_JUSTAS]	0.379 ± 0.1 kcal/mol	0.201 ± 0.14 kcal/mol	0.414 ± 0.095 kcal/mol
SAGGSAMPVVELPIGPELYEKIKEAAEAGDPDKVITLPLKLPNGEEVTLVVEADPATPEFRARVELSAGGSA [r15_700_TrMRF]	0.105 ± 0.096 kcal/mol	-0.683 ± 0.1 kcal/mol	0.397 ± 0.085 kcal/mol
SAGGMEVREIDVENEDGHNVKIEIWWMPGEGWIMVKIEGPNPALIDDIQKEIGLPILEVMKDGYLMIKSAGG [r13_937_TrROS]	2.22 ± 0.091 kcal/mol	1.16 ± 0.03 kcal/mol	2.6 ± 0.033 kcal/mol
SAGGSISVEELKKLPPDSTLTYTEGDKLYEIKVYKNPEGALSIEITEIDPNTGSPVKTEIVNLEELLSAGGS [r16_763_JUSTAS]	3.21 ± 0.12 kcal/mol	1.63 ± 0.13 kcal/mol	3.53 ± 0.075 kcal/mol
SAGGSMIPRLEERVLEVEVDSEEEAEKLKKELKEKIEKEHPGVEVKFELRKLPNGKYLLTITVVIPILSAGG [r13_17_JUSTAS]	3.64 ± 0.077 kcal/mol	2.89 ± 0.058 kcal/mol	3.93 ± 0.041 kcal/mol
SAGGSAGGSAGGMTLEELKKAIENAKPGETIEIEINGETYRITIIEKDGKLIIKIEKLPPSAGGSAGGSAGG [r7_448_TrROS_Hall]	4.19 ± 0.24 kcal/mol	4.36 ± 0.36 kcal/mol	4.21 ± 0.25 kcal/mol
SAGGSAGGSAGGKMKPVTIYIKNKDGSTAKLKVINGKVEITFPNGEKKTISAKDLKIYKSAGGSAGGSAGGS [r10_1176_TrROS_Hall]	1.22 ± 0.17 kcal/mol	0.631 ± 0.086 kcal/mol	1.49 ± 0.13 kcal/mol
SAGGSAMTIEIVVPTLEAIEKLAEETGAEVVEVRFFEEEGLVVVRIKVPESKEELLEKIREALGLESAGGSA [r15_118_TrROS_Hall]	2.11 ± 0.1 kcal/mol	2.17 ± 0.069 kcal/mol	2.1 ± 0.092 kcal/mol
SAGGSAGGSAGMVVVERTSAPDPDKPTSYWFYTKTTFFPDGSVLSETKKFPSPAELEKATSAGGSAGGSAGG [r11_792_JUSTAS]	0.992 ± 0.07 kcal/mol	0.793 ± 0.023 kcal/mol	1.07 ± 0.12 kcal/mol
SAGGSAGGSAMKTSSGTVSFPDSTVKLSYENFGDGSVKKSVVEVVSRPPPPPVPPSNPHYLQSAGGSAGGSA [r18_176_JUSTAS]	0.702 ± 0.39 kcal/mol	0.667 ± 0.12 kcal/mol	0.567 ± 0.22 kcal/mol
SAGFGVYKHKYKYDNDDGNPKPKKPEEEPVEPAPPIEPLPIPIRLPDGQPFTFTILSISPKNNNISLNGSAG [r5_735_TrROS]	0.452 ± 0.2 kcal/mol	0.279 ± 0.22 kcal/mol	0.382 ± 0.2 kcal/mol
SAGGSAGGSAMPEPVLIVVEVESLEEAKKLAEELAVEGVKVEVDPESGLVKIEIEKESLLESAGGSAGGSAG [r3_186_TrMRF]	1.12 ± 0.11 kcal/mol	1.03 ± 0.092 kcal/mol	1.23 ± 0.08 kcal/mol
SAGGSAGGSAKKKKYKVKIKVINENGEIYEIDEIYFDEKTKKIYIKIKNKDGEEKVFEIELDSAGGSAGGSA [r18_370_TrROS_Hall]	3.25 ± 0.13 kcal/mol	2.4 ± 0.059 kcal/mol	3.74 ± 0.051 kcal/mol
SAGGDNIDVERHPHPNNMYMFSITIPPDYPLKIRYPNGPKHEIPIPDPNATIHFMFPPDEPIEIEIYPSAGG [r13_82_TrROS]	1.2 ± 0.083 kcal/mol	1.12 ± 0.019 kcal/mol	1.25 ± 0.12 kcal/mol
SASKRFVFPVLGDEQTITVDVPEDYYVRITVFFPDGSEPILIPPNEKVTITVPRKDAFVVIEVFPKNEESAG [r14_882_TrMRF]	2.48 ± 0.067 kcal/mol	2.59 ± 0.077 kcal/mol	2.35 ± 0.025 kcal/mol
SAGGSAGGSAGSGTMFDFGSASVETLEEDPNGRVLVKVTLPDSEYLLEIVKGELVKIEPRSAGGSAGGSAGG [r17_396_JUSTAS]	0.569 ± 0.12 kcal/mol	-0.274 ± 0.28 kcal/mol	0.858 ± 0.059 kcal/mol
SAGGMTTVTTTFTMSSEELKKFLEEKFGREVTKEEIIELIPKEKKIDVSESPQPNGTVKYTITITIEKSAGG [r13_869_JUSTAS]	2.44 ± 0.16 kcal/mol	1.99 ± 0.099 kcal/mol	2.61 ± 0.044 kcal/mol
SAGGSAGGSAGGKPKLTLTLTLKRTVKNKNGKTTEKTLTLTLTFDSKEEAENALKELGFSAGGSAGGSAGGS [r10_1062_TrROS_Hall]	2.67 ± 0.099 kcal/mol	2.18 ± 0.033 kcal/mol	2.92 ± 0.042 kcal/mol
